Data as given in patent US20240141060A1 (Novartis, published 2024).
Numbering of substitutions follows the chain as printed. Names and notes keep the numbering of the source.

Tests used:
[1] = target: T1, Recombinant Mouse 5′-Nucleotidase/CD73 Protein, CF (R&D Systems Cat: 4488-EN) (mouse, UniProt Q61503 29-549, limits assumed); test: Biacore SPR, His-tagged CD73 captured by anti-His antibody on CM5 chip, antibody as analyte
T1 construct: Bought protein; also called Mouse CD73-His; recombinant mouse CD73; not shown: His tag
T1 sequence (looked up): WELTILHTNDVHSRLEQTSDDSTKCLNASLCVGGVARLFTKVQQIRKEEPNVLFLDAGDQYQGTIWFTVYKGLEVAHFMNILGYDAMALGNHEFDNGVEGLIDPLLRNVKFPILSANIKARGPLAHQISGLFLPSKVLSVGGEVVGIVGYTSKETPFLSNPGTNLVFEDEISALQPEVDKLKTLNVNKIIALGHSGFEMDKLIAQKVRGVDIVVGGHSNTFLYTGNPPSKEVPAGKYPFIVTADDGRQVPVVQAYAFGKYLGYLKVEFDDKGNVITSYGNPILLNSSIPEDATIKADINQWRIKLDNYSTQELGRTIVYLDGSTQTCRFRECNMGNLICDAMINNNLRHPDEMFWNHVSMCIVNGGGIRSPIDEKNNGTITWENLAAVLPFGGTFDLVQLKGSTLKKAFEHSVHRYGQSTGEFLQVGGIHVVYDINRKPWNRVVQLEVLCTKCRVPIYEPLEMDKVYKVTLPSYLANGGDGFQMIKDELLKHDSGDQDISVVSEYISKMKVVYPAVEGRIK
Experimental: (§1) The anti-His Ab was directly immobilized onto a CM5 chip surface by amine coupling. The His-tagged human CD73/His, cynomolgus monkey CD73/His, mouse CD73/His or rat CD73/His was flowed over and captured at a desired resonance unit (RU) for an Rmax of 20. Antibody analyte concentrations in serial dilutions of IgG or Fab were flowed over at 60 μL/min. The sensorgrams were analyzed using the manufacturer's software for a 1:1 binding model.

[2] = target: T2, recombinant rat CD73 (Sino Biological 80375-R08H) (rat, UniProt P21588 29-551); test: as above
T2 construct: Bought protein; also called rCD73; rat CD73/His
T2 sequence (looked up): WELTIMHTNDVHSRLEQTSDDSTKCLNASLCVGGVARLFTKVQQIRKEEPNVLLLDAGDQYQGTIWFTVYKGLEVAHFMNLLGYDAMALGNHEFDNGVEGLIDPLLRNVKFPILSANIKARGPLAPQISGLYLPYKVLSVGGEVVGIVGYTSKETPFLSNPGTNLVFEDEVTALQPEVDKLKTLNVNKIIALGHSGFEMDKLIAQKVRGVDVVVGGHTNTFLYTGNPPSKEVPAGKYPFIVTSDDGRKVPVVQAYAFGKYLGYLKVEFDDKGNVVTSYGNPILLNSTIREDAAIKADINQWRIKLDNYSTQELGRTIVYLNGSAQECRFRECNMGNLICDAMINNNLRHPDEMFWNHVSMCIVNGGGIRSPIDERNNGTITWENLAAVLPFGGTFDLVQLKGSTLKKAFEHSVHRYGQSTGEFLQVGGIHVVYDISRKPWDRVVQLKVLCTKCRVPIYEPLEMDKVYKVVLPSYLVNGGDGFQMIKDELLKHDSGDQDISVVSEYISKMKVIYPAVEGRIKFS
Experimental: as §1

[3] = target: T3, Cynomolgus CD73/NT5E Protein (His Tag) (Sino Biological Cat: 90192-C08H-50) (cynomolgus monkey, UniProt A0A2K5V5U7 27-547); test: Biacore SPR, His-tagged CD73 captured by anti-His antibody on CM5 chip, IgG as analyte, 1:1 model
T3 construct: treated as one protein; also called Cynomolgus CD73-His; recombinant cynomolgus monkey CD73; not shown: His tag
T3 sequence: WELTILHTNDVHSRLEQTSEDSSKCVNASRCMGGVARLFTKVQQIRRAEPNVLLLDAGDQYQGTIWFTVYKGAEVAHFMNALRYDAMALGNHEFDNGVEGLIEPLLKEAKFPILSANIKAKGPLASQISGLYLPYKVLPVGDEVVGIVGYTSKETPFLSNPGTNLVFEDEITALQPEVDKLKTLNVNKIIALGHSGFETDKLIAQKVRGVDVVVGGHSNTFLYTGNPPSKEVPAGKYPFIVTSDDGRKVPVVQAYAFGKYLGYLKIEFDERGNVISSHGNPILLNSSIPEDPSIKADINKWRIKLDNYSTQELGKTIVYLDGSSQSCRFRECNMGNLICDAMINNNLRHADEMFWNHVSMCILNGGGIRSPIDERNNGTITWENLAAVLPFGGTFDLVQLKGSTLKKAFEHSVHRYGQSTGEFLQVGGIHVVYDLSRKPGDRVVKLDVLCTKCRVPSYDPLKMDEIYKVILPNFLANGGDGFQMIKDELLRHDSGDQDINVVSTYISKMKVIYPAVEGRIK
Experimental: as §1
(§2) Therefore, given that 1:1 bidentate binding will favor avidity, the whole Ab affinities were used rather than Fab measurements.

[4] = target: T4, Recombinant Human 5′-Nucleotidase/CD73 Protein, CF (R&D Systems Cat: 5795-EN) (human, UniProt P21589 27-547); test: as above
T4 construct: Bought protein; also called Human CD73-His; recombinant human CD73; not shown: His tag
T4 sequence (looked up): T3 sequence with T199M, A350T, I466V
Experimental: as §1, §2

B1: anti-CD73 antibody 373.A (antibody, human IgG4 S228P, kappa, V domains shown)
VH: EVQLLESGGGLVQPGGSLRLSCAASGFTFHRYAMSWVRQAPGKGLEWVSAISGSGMNTYYADSVKGRFTISRDNSKNTLYLQMNSLRAEDTAVYYCARGGLYGSGSYLSDFDLWGRGTLVTVSS
VL: EIVLTQSPATLSVSPGERATLSCRASQSVGSNLAWYQQKPGQAPRLLIYGASTRATGIPARFSGSGSGTEFTLTISSLQSEDFAVYYCQQHNAFPYTFGGGTKVEIKR
notes: IgG4 S228P format
- binding result [1]: no binding
- binding result [2]: no binding
- Kd [3]: 0.068 nM
- Kd [4]: 0.991 nM
